B1: Mothers against decapentaplegic homolog 4 (Homo sapiens), Q13485 (parent)
chain: MDNMSITNTPTSNDACLSIVHSLMCHRQGGESETFAKRAIESLVKKLKEKKDELDSLITAITTNGAHPSKCVTIQRTLDGRLQVAGRKGFPHVIYARLWRWPDLHKNELKHVKYCQYAFDLKCDSVCVNPYHYERVVSPGIDLSGLTLQSNAPSSMMVKDEYVHDFEGQPSLSTEGHSIQTIQHPPSNRASTETYSTPALLAPSESNATSTANFPNIPVASTSQPASILGGSHSEGLLQIASGPQPGQQQNGFTGQPATYHHNSTTTWTGSRTAPYTPNLPHHQNGHLQHHPPMPPHPGHYWPVHNELAFQPPISNHPAPEYWCSIAYFEMDVQVGETFKVPSSCPIVTVDGYVDPSGGDRFCLGQLSNVHRTEAIERARLHIGKGVQLECKGEGDVWVRCLSDHAVFVQSYYLDREAGRAPGDAVHKIYPSAYIKVFDLRQCHRQMQQQAATAQAAAAAQAAAVAGNIPGPGSVGGIAPAISLSAAAGIGVDDLRRLCILRMSFVKGWGPDYPRQSIKETPCWIEIHLHRALQLLDEVLHTMPIADPQPLD

Variants of: B1
Conditions: with ros1_human ROS1, P08922

| Variant | effect of a mutation on the interaction |
| --- | --- |
| R361C | with no effect |

Variants of: B1
Conditions: with ks6b1_human RPS6KB1, P23443

| Variant | effect of a mutation on the interaction |
| --- | --- |
| R361C | with no effect |

Variants of: B1
Conditions: with runx1_human RUNX1, Q01196

| Variant | effect of a mutation on the interaction |
| --- | --- |
| R361C | with no effect |

Variants of: B1
Conditions: with ruvb1_human RUVBL1, Q9Y265

| Variant | effect of a mutation on the interaction |
| --- | --- |
| R361C | with no effect |

Variants of: B1
Conditions: with rxra_human RXRA

| Variant | effect of a mutation on the interaction |
| --- | --- |
| R361C | with no effect |

Variants of: B1
Conditions: with sdha_human SDHA

| Variant | effect of a mutation on the interaction |
| --- | --- |
| R361C | with no effect |

Variants of: B1
Conditions: with setb1_human SETDB1, Q15047

| Variant | effect of a mutation on the interaction |
| --- | --- |
| R361C | with no effect |

Variants of: B1
Conditions: with sf3b1_human SF3B1, O75533
sf3b1_human SF3B1, O75533, sequence (O75533 whole entry): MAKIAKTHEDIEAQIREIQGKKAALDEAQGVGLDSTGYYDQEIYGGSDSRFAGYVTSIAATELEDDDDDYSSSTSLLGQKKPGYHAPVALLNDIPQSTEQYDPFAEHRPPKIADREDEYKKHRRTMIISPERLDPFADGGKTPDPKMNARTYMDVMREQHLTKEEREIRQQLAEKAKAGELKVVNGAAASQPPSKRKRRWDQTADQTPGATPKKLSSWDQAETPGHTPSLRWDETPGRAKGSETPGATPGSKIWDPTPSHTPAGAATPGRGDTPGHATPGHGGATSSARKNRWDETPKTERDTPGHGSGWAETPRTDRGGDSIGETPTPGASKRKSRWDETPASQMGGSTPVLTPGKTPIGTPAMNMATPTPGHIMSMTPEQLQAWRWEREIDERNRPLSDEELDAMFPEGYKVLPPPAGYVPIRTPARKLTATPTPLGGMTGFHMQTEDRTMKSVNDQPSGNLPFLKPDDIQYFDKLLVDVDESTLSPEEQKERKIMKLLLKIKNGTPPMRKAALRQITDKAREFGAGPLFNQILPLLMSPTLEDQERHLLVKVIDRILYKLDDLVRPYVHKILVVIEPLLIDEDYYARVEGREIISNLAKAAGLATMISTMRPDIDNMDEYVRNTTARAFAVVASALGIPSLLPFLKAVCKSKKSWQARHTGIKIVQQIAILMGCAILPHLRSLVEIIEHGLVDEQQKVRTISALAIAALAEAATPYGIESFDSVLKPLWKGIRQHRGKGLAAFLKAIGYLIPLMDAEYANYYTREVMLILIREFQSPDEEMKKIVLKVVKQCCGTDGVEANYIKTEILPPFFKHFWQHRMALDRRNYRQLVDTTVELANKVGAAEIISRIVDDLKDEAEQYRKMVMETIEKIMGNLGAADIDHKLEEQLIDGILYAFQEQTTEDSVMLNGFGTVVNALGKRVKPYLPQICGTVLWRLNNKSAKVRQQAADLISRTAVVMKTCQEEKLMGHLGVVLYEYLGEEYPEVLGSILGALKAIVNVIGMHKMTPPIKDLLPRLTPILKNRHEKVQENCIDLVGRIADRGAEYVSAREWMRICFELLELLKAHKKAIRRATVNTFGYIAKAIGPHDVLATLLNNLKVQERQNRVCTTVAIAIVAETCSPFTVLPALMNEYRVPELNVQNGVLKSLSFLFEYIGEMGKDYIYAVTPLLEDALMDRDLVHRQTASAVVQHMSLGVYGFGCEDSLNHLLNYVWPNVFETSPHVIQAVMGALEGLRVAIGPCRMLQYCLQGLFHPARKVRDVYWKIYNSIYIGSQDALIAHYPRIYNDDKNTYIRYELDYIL

| Variant | effect of a mutation on the interaction |
| --- | --- |
| R361C | with no effect |

Variants of: B1
Conditions: with skp2_human SKP2, Q13309

| Variant | effect of a mutation on the interaction |
| --- | --- |
| R361C | with no effect |

Variants of: B1
Conditions: with smad1_human SMAD1, Q15797

| Variant | effect of a mutation on the interaction |
| --- | --- |
| R361C | with no effect |

Variants of: B1
Conditions: with smad2_human SMAD2, Q15796
smad2_human SMAD2, Q15796, sequence (Q15796 whole entry): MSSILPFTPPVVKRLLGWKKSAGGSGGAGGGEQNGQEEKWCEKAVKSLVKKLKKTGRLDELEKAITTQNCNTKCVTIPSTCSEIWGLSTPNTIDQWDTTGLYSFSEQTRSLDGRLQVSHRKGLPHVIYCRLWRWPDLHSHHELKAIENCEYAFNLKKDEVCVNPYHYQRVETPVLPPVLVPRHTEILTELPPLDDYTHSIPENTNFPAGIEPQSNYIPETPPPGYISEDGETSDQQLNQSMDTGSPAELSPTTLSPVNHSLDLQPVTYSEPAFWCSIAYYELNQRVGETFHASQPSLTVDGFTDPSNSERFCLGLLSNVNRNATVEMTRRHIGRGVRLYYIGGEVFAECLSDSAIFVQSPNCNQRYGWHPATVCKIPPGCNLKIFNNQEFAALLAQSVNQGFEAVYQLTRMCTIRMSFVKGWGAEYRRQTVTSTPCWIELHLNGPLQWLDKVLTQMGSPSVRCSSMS

| Variant | effect of a mutation on the interaction |
| --- | --- |
| R361C | with no effect |

Variants of: B1
Conditions: with smad3_human SMAD3, P84022
smad3_human SMAD3, P84022, sequence (P84022 whole entry, looked up): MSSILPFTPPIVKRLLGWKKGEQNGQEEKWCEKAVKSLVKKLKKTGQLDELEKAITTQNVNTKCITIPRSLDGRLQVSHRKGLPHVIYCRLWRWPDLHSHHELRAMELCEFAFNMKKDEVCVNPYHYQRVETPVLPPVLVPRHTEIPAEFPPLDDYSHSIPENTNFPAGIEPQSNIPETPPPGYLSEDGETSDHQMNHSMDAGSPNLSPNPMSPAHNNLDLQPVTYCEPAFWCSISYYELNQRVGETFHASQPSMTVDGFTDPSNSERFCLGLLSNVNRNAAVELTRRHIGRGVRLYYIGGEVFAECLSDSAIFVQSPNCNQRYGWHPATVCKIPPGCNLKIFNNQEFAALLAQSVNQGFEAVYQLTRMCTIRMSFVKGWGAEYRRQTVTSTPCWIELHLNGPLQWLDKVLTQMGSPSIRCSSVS

| Variant | effect of a mutation on the interaction |
| --- | --- |
| R361C | with no effect |

Variants of: B1
Conditions: with smca4_human SMARCA4, P51532

| Variant | effect of a mutation on the interaction |
| --- | --- |
| R361C | with no effect |

Variants of: B1
Conditions: with snf5_human SMARCB1, Q12824

| Variant | effect of a mutation on the interaction |
| --- | --- |
| R361C | with no effect |

Variants of: B1
Conditions: with smo_human SMO

| Variant | effect of a mutation on the interaction |
| --- | --- |
| R361C | with no effect |

Variants of: B1
Conditions: with socs1_human SOCS1, O15524
socs1_human SOCS1, O15524, sequence (O15524 whole entry): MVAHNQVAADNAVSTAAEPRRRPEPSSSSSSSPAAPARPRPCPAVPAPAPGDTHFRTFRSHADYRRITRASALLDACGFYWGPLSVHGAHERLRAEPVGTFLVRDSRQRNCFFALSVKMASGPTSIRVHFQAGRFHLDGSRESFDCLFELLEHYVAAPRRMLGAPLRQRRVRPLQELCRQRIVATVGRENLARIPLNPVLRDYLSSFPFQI

| Variant | effect of a mutation on the interaction |
| --- | --- |
| R361C | with no effect |

Variants of: B1
Conditions: with sox10_human SOX10, P56693

| Variant | effect of a mutation on the interaction |
| --- | --- |
| R361C | with no effect |

Variants of: B1
Conditions: with sox2_human SOX2, P48431

| Variant | effect of a mutation on the interaction |
| --- | --- |
| R361C | with no effect |

Variants of: B1
Conditions: with sox3_human SOX3, P41225

| Variant | effect of a mutation on the interaction |
| --- | --- |
| R361C | with no effect |

Variants of: B1
Conditions: with sox4_human SOX4, Q06945

| Variant | effect of a mutation on the interaction |
| --- | --- |
| R361C | with no effect |

Variants of: B1
Conditions: with sox9_human SOX9, P48436

| Variant | effect of a mutation on the interaction |
| --- | --- |
| R361C | with no effect |

Variants of: B1
Conditions: with spop_human SPOP

| Variant | effect of a mutation on the interaction |
| --- | --- |
| R361C | with no effect |

Variants of: B1
Conditions: with src_human SRC

| Variant | effect of a mutation on the interaction |
| --- | --- |
| R361C | with no effect |

Variants of: B1
Conditions: with stat3_human STAT3, P40763
stat3_human STAT3, P40763, sequence (P40763 whole entry): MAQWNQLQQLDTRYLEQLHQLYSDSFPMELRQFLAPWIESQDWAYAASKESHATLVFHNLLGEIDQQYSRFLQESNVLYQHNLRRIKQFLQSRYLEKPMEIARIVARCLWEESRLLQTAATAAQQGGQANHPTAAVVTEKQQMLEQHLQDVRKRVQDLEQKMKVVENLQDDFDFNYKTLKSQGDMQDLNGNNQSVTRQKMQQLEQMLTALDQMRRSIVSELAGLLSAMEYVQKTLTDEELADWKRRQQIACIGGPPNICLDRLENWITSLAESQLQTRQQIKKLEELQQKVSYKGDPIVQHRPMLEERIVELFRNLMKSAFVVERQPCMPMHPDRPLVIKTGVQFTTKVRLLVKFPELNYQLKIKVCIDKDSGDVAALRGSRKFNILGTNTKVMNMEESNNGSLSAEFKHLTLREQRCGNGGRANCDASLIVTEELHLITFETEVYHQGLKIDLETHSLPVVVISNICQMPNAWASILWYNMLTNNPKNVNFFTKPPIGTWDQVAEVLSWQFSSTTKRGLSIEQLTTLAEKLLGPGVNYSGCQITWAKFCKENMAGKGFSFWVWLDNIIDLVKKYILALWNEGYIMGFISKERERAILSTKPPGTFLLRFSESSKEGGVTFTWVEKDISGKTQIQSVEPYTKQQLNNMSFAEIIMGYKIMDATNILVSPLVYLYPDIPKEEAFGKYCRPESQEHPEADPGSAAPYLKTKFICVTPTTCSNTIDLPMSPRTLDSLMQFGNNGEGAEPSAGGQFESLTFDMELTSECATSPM

| Variant | effect of a mutation on the interaction |
| --- | --- |
| R361C | with no effect |

Variants of: B1
Conditions: with stk38_human STK38, Q15208

| Variant | effect of a mutation on the interaction |
| --- | --- |
| R361C | with no effect |

Variants of: B1
Conditions: with ksyk_human SYK

| Variant | effect of a mutation on the interaction |
| --- | --- |
| R361C | with no effect |

Variants of: B1
Conditions: with eloc_human ELOC

| Variant | effect of a mutation on the interaction |
| --- | --- |
| R361C | with no effect |

Variants of: B1
Conditions: with tfe2_human TCF3, P15923

| Variant | effect of a mutation on the interaction |
| --- | --- |
| R361C | with no effect |

Variants of: B1
Conditions: with tead1_human TEAD1, P28347
tead1_human TEAD1, P28347, sequence (P28347 whole entry): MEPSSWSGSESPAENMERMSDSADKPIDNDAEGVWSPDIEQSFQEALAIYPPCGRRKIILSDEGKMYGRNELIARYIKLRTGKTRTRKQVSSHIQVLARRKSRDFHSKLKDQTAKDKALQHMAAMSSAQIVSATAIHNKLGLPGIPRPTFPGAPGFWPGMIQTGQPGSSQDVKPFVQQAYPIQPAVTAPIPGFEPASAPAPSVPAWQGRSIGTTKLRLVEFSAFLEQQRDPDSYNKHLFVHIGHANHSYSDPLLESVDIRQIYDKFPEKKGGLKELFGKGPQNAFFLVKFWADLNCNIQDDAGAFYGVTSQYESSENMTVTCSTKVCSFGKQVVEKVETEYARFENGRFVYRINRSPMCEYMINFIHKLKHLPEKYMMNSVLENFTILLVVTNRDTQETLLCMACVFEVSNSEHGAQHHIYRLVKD

| Variant | effect of a mutation on the interaction |
| --- | --- |
| R361C | with no effect |

Variants of: B1
Conditions: with tead2_human TEAD2, Q15562

| Variant | effect of a mutation on the interaction |
| --- | --- |
| R361C | with no effect |

Variants of: B1
Conditions: with tead3_human TEAD3, Q99594

| Variant | effect of a mutation on the interaction |
| --- | --- |
| R361C | with no effect |

Variants of: B1
Conditions: with tgfr2_human TGFBR2, P37173
tgfr2_human TGFBR2, P37173, sequence (P37173 whole entry): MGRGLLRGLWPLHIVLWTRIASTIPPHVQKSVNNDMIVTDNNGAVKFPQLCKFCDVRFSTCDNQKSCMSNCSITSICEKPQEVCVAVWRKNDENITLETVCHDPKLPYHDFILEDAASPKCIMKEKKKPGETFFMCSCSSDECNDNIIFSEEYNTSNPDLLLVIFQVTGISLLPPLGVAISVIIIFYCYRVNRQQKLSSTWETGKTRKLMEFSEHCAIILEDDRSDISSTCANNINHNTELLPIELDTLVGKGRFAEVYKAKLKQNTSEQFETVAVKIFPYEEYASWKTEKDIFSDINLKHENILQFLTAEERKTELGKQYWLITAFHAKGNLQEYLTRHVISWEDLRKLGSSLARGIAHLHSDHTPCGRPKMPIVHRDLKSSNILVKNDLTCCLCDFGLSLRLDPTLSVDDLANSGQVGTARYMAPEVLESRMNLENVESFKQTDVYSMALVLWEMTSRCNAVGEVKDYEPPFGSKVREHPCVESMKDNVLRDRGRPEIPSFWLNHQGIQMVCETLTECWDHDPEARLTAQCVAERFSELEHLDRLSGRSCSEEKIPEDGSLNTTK

| Variant | effect of a mutation on the interaction |
| --- | --- |
| R361C | with no effect |

Variants of: B1
Conditions: with tnr14_human TNFRSF14, Q92956
tnr14_human TNFRSF14, Q92956, sequence (Q92956 whole entry): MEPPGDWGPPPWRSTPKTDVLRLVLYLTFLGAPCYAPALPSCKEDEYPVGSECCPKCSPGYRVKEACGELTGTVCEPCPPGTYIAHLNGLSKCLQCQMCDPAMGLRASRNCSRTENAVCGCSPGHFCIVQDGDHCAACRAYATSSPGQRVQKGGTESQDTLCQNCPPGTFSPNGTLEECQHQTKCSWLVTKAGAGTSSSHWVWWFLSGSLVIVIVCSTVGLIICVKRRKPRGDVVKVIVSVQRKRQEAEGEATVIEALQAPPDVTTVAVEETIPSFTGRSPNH

| Variant | effect of a mutation on the interaction |
| --- | --- |
| R361C | with no effect |

Variants of: B1
Conditions: with tpx2_human TPX2, Q9ULW0

| Variant | effect of a mutation on the interaction |
| --- | --- |
| R361C | with no effect |

Variants of: B1
Conditions: with trrap_human TRRAP

| Variant | effect of a mutation on the interaction |
| --- | --- |
| R361C | with no effect |

Variants of: B1
Conditions: with tsc2_human TSC2, P49815

| Variant | effect of a mutation on the interaction |
| --- | --- |
| R361C | with no effect |

Variants of: B1
Conditions: with tshr_human TSHR

| Variant | effect of a mutation on the interaction |
| --- | --- |
| R361C | with no effect |

Variants of: B1
Conditions: with wt1_human WT1, P19544

| Variant | effect of a mutation on the interaction |
| --- | --- |
| R361C | with no effect |

Variants of: B1
Conditions: with wwtr1_human WWTR1, Q9GZV5

| Variant | effect of a mutation on the interaction |
| --- | --- |
| R361C | with no effect |

Variants of: B1
Conditions: with xpo1_human XPO1, O14980

| Variant | effect of a mutation on the interaction |
| --- | --- |
| R361C | with no effect |

Variants of: B1
Conditions: with 1433b_human YWHAB

| Variant | effect of a mutation on the interaction |
| --- | --- |
| R361C | with no effect |

Variants of: B1
Conditions: with 1433e_human YWHAE

| Variant | effect of a mutation on the interaction |
| --- | --- |
| R361C | with no effect |

Variants of: B1
Conditions: with 1433z_human YWHAZ

| Variant | effect of a mutation on the interaction |
| --- | --- |
| R361C | with no effect |

Variants of: B1
Conditions: with gata2_human GATA2, P23769
gata2_human GATA2, P23769, sequence (P23769 whole entry): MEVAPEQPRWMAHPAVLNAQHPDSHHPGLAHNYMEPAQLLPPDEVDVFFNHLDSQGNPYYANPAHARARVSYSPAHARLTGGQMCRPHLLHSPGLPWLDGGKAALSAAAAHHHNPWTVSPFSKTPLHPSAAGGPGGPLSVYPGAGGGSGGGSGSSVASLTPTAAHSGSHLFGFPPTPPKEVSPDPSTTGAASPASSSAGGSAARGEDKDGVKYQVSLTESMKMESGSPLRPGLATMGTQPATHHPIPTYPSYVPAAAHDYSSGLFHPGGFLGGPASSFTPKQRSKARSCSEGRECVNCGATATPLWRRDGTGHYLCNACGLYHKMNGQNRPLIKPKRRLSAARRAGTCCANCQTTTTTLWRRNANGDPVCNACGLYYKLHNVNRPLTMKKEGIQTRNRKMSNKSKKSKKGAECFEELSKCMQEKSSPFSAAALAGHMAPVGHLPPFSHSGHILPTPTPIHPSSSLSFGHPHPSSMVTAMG

| Variant | effect of a mutation on the interaction |
| --- | --- |
| R361C | decreasing interaction strength |

Variants of: B1
Conditions: with smad3_human SMAD3, P84022
Remark: another data set of the same source

| Variant | effect of a mutation on the interaction |
| --- | --- |
| R361C | decreasing interaction strength |

Variants of: B1
Conditions: with cdk6_human CDK6, Q00534

| Variant | effect of a mutation on the interaction |
| --- | --- |
| R361C | decreasing interaction strength |

Reference: IntAct's records for PubMed 35512704
